# Changes are numbered by the printed parent chain.
# T1: chicken interleukin 10 (chicken (Gallus gallus), UniProt Q6A2H4 22-174)
# T1 construct: also called cIL-10; cIL10
# T1 sequence: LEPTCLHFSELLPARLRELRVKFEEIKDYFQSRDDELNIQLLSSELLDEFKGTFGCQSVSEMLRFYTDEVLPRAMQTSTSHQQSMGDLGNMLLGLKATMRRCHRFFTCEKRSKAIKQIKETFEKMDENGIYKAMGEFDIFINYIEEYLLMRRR
# B1: chIL10sdAB1D6 (VHH)
# VHH: QVQLQASGGGLVQAGGSLRLSCQASESISSINTMGWFRQASGEEREFVAAIESGGATAYAESAKGRFTISRDNAKNTVYLQMNSLKPEDTAVYYCAAGVPTYDDDAMPISWRFWGRGTLVTVSS
# notes: Llama single domain antibody; The construct used in the ELISA is not described; also called 44-IL-bR2-1D6
# B2: chIL10sdAB1A11 (VHH, not shown: small tags and cut ends)
# VHH: QVQLQESGGGLVQPGGSLRLSCAASGNIFSINTMGWYRQAPGKQRELVASITTGGTTNYEDSVKGRFTISRDNAKKTVYLQMNRLKPEDTAVYYCNHRRSYSGRDYPVYGMDYWGKGTLVTVSS
# notes: Llama single domain antibody; also called 1A11 sdAB; 81-IL-bR2-1A11
# B3: chIL10sdAB1B9 (VHH)
# VHH: QVQLQESGGGLVQAGGSLRLSCAASGRTFSSYAWGWFRQAPGKEREFVARISFSGGHTYYSDSVKGRFTISRDNAKNTVYLQMNSLKPEDTAVYYCAADPTPYGLRNERNYPYWGQGTQVTVSS
# notes: Llama single domain antibody; The construct used in the ELISA and the cell assay is not described
# B4: chIL10sdAB1H1 (VHH)
# VHH: B3 VHH with E6A, S30N, E46G, T78S, P112H
# notes: Llama single domain antibody; The construct used in the ELISA is not described
# B5: chIL10sdAB1F11 (VHH, not shown: small tags and cut ends)
# VHH: QVQLQEFGGGLVQPGGSLRLSCAASGRTGSSYAMGWFRQAPGKEREFVAAISWSGGSTDYADSVKGRFTISRDNAKNTMYLQMNSLKPEDTAVYYCAVDRNLFKLRVAVQEYTNLGQGTQVTVSS
# notes: Llama single domain antibody; also called 86-IL-bR2-1F11
# Biological target: T1, chicken interleukin 10
# Assay: ELISA, sdAB titrated on cIL-10 coated plates
row,EC50,Binder
1,~100 nM,B1
2,~1 nM,B2
3,~35 nM,B3
4,20 nM,B4
5,~15 nM,B5

# Biological target: T1, chicken interleukin 10
# Assay: cell-based or functional assay
row,"apparent EC50, recovery of IFN-γ secretion in primary chicken spleen cells treated with ConA and cIL-10",Binder
1,25 nM,B2
2,40 nM,B3
3,60 nM,B5

# Reference: patent publication US20240200089A1 (AGRIVIDA, published 2024)
